T1: ADH (recombinant A. thaliana alcohol dehydrogenase, ADH1, At1g77120) (Arabidopsis thaliana, UniProt P06525)
T1 construct: tag removal not mentioned
T1 sequence (P06525 1-379): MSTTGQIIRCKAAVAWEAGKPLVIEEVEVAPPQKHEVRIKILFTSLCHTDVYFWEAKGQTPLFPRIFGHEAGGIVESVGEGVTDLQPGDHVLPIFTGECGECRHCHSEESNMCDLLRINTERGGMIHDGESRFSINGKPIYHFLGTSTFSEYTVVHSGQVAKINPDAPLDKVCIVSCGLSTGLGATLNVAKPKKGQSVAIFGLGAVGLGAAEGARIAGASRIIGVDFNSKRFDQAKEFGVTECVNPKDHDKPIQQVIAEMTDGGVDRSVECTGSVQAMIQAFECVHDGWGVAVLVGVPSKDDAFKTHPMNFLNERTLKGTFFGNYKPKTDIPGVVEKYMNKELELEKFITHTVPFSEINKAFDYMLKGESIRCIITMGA


Experiments:
[1] = biological target: T1, ADH (recombinant A. thaliana alcohol dehydrogenase, ADH1, At1g77120); experiment: protection of activity against inactivation by H2O2 or DEA/NO; format: biochemical; details: 0.02-0.2 mM NADH; 0.5 mM H2O2 or DEA/NO; 100 mM Tris-Cl pH 7.5; room temperature
[2] = substrate: NC(=O)c1ccc[n+]([C@@H]2O[C@H](COP(=O)(O)OP(=O)(O)OC[C@H]3O[C@@H](n4cnc5c(N)ncnc54)[C@H](O)[C@@H]3O)[C@@H](O)[C@H]2O)c1; experiment: microplate ADH activity assay, non-linear regression; format: biochemical, Arabidopsis thaliana; details: ethanol-to-acetaldehyde direction; NAD+ varied 0-0.8 mM; 5 mM DTT
Description: microplate ADH activity assay, non-linear regression on ADH (recombinant A. thaliana alcohol dehydrogenase, ADH1, At1g77120)

| Molecule | protection of activity against inactivation by H2O2 or DEA/NO [1] | Km [2] | kcat [2] | kcat/Km [2] |
| --- | --- | --- | --- | --- |
| NC(=O)C1=CN([C@@H]2O[C@H](COP(=O)(O)OP(=O)(O)OC[C@H]3O[C@@H](n4cnc5c(N)ncnc54)[C@H](O)[C@@H]3O)[C@@H](O)[C@H]2O)C=CC1 [NADH] | presence of NADH allows the enzyme to keep a significantly higher activity level | – | – | – |
| ADH (recombinant A. thaliana alcohol dehydrogenase, ADH1, At1g77120) (Arabidopsis thaliana) (protein, tag removal not mentioned) MSTTGQIIRCKAAVAWEAGKPLVIEEVEVAPPQKHEVRIKILFTSLCHTDVYFWEAKGQTPLFPRIFGHEAGGIVESVGEGVTDLQPGDHVLPIFTGECGECRHCHSEESNMCDLLRINTERGGMIHDGESRFSINGKPIYHFLGTSTFSEYTVVHSGQVAKINPDAPLDKVCIVSCGLSTGLGATLNVAKPKKGQSVAIFGLGAVGLGAAEGARIAGASRIIGVDFNSKRFDQAKEFGVTECVNPKDHDKPIQQVIAEMTDGGVDRSVECTGSVQAMIQAFECVHDGWGVAVLVGVPSKDDAFKTHPMNFLNERTLKGTFFGNYKPKTDIPGVVEKYMNKELELEKFITHTVPFSEINKAFDYMLKGESIRCIITMGA | – | 166 ± 17 µM | 31.5 ± 2.7 s⁻¹ | 191000 ± 8000 M⁻¹ s⁻¹ |
| ADH (recombinant A. thaliana alcohol dehydrogenase, ADH1, At1g77120) (Arabidopsis thaliana; C243S) (protein, tag removal not mentioned) MSTTGQIIRCKAAVAWEAGKPLVIEEVEVAPPQKHEVRIKILFTSLCHTDVYFWEAKGQTPLFPRIFGHEAGGIVESVGEGVTDLQPGDHVLPIFTGECGECRHCHSEESNMCDLLRINTERGGMIHDGESRFSINGKPIYHFLGTSTFSEYTVVHSGQVAKINPDAPLDKVCIVSCGLSTGLGATLNVAKPKKGQSVAIFGLGAVGLGAAEGARIAGASRIIGVDFNSKRFDQAKEFGVTESVNPKDHDKPIQQVIAEMTDGGVDRSVECTGSVQAMIQAFECVHDGWGVAVLVGVPSKDDAFKTHPMNFLNERTLKGTFFGNYKPKTDIPGVVEKYMNKELELEKFITHTVPFSEINKAFDYMLKGESIRCIITMGA | – | 251 ± 17 µM | 52.1 ± 3 s⁻¹ | 208000 ± 5000 M⁻¹ s⁻¹ |
